{
  "source": "patent US20230312739A1",
  "about": "(BIOTHEUS, published 2023)",
  "key": {"[1]": {"molecular_target": "T1, CD73 on cynomolgus macaques CD3+CD8+ T cells (cynomolgus macaques, UniProt A0A2K5V5U7 27-549)", "T1 construct": "whole, on cells; also called cynomolgus macaques T cells; cynomolgus macaques PBMC", "T1 sequence": "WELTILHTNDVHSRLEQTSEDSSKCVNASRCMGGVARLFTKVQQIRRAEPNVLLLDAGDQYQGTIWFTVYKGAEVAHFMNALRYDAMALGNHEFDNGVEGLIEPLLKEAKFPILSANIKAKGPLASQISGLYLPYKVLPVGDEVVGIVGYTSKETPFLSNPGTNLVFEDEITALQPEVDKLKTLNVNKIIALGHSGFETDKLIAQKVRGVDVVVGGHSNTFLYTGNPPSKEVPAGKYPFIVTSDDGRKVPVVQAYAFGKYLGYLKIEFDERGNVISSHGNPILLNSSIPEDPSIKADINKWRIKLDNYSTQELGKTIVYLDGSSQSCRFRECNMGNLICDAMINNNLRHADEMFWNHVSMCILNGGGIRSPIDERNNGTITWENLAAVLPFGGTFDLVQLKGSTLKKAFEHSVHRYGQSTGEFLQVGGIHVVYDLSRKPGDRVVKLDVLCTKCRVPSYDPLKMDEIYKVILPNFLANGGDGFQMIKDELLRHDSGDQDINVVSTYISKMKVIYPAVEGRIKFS", "experiment": "flow cytometry on cynomolgus macaque PBMC, CD3+CD8+ T cells, donor 1300M", "description": "Monkey blood samples from two donors (1132F and 1300M) were obtained from Medicilon. Peripheral blood mononuclear cells (PBMCs) were isolated using a Ficoll density gradient centrifugation system. The PBMCs were incubated with the antibody to be tested, then the antibodies bound on the cells were stained with fluorochrome-labeled secondary antibodies (DyLight488 goat anti-mouse IgG, Abcam Cat. No. ab97015; DyLight488 goat anti-human IgG, Abcam Cat. No. ab97003), and the fluorochrome-labeled antibodies against CD3+ and CD8+ were used to recognize T cells. Together with the unstained control samples and the fluorescence compensation control samples, all the samples were run on a flow cytometer to detect the binding of the antibodies to cynomolgus macaques T cells."}, "[2]": {"molecular_target": "T2, human CD73 on the cell surface (tumor cells endogenously expressing human CD73; CHOS-human CD73) (human, UniProt P21589 27-549)", "T2 construct": "The endogenous CD73 of the human tumor lines (MDA-MB-231, Calu6, SK-ME-S, H2030, SKLU1, BT549, A375, HCC44) is treated as the same protein", "T2 sequence": "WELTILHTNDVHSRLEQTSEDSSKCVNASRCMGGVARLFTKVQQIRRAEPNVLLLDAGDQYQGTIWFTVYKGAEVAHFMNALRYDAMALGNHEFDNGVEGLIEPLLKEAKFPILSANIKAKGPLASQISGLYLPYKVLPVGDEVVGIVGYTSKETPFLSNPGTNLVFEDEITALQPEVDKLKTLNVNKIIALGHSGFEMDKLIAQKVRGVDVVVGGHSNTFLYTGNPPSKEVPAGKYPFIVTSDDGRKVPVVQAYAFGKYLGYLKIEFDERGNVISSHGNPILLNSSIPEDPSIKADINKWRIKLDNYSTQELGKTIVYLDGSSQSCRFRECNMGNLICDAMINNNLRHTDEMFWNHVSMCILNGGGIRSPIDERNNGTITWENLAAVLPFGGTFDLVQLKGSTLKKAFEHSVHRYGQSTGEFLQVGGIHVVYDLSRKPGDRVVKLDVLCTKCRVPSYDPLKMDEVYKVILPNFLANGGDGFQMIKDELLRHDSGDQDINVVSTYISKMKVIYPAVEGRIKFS", "experiment": "full-field cell scanning analyzer (Celigo), percent fluorescent cells, SKLU1 cells endogenously expressing human CD73", "description": "(§1) Experimental method: 10,000 cells were plated on a flat-bottom 96-well plate with 100 μL DMEM+10% FBS/well, cultured overnight so that the cells adhered to the well, and the supernatant was discarded on the next day. Serial 3-fold dilutions of antibody for 8 points were performed by diluting ⅓ of the total volume (100 μL) in 200 μL DMEM. 100 μL of the diluted antibody was added to each well of the cell plate (the supernatants of fused clones or subclones were used for screening), 100 μL of DMEM was added to the corresponding negative control well, and incubation was performed at room temperature for 1 hour. After the supernatant was discarded, 100 μL of secondary antibody (DyLight488 goat anti-mouse IgG (Abcam, Cat. No. ab97015)) was added to each well at a concentration of 5 μg/mL (diluted in DMEM), and incubation was performed for 0.5 hours at room temperature. After staining, the supernatant was discarded, followed by washing once with PBS+2% FBS, then 100 μL of PBS+2% FBS was added to each well, and then reading was performed on analyzer. A full-field cell scanning analyzer (Nexcelom Company, model Celigo® Image Cytometer) was used to measure the reading of the experimental plate. […] The binding effect of the anti-CD73 antibody to the CD73-expressing cell line was determined according to the percentage. […]"}, "[3]": {"molecular_target": "T2, human CD73 on the cell surface (tumor …)", "experiment": "cell binding on adherent CHOS-human CD73 cells, DyLight488 goat anti-mouse IgG, full-field cell scanning analyzer (Celigo), % fluorescent cells", "description": "as §1"}},
  "data": [
    {"binder": "murine antibody 13D12 (antibody, V domains shown, Mouse monoclonal antibody purified from hybridoma supernatant; also called mouse monoclonal antibody 13D12) VH: DVKLQESGPAMVKPSQSLSLTCTVTGYSITSGYDWHWIRLFPGNKLEWMGYISYSGYTDYSPSLKSRISITHDTSKNHFFLKLHSVTTEDTATYYCTRGDHSYAMDYWGQGTSVTVS VL: DIVMTQSHKFMSTSVGDRVSITCKASQAVGTAVAWYQQKPGQSPKLLIYWASSRHTGVPDRFTGSRSGTDFTLTISSVQSEDLADYFCQQYSSYPLTFGGGTNLEIK", "values": [
      {"measurement": "MFI FC (fold change of mean fluorescence intensity)", "setting": "[1]", "value": 2.8, "unit": "fold"},
      {"measurement": "EC50", "setting": "[2]", "value": 2.46, "unit": "µg/mL"},
      {"measurement": "EC50 (read off the curve)", "setting": "[3]", "value": "~0.06", "unit": "µg/mL"}
    ]}
  ]
}
